experiment: soluble on expression in E. coli; label from the status in PepcDB or PDB records

Sequence	soluble on expression in E. coli
MKLIIHQKWYLQQVKDTFTNLQAPRLHWALRNALNTAAKQVERFTEKQVADLSSAQIKRIRRGVYIKEKATARFLETDLIGSGTPLPLKFFKAKETKHGVTYTLFGKKQILTHGFIKGGSFPKRVDLKMGGNVFQRDDGDQFPIAKQEGPSIAKVMSKPEIASAIAQYANERLTKNIQRQLARQEYAANKKG	not soluble
MKLKKIVFTLIALGLFSCKTTSVLVKNEPQLKTPKNVILLISDGAGLSQISSTFYFKSGTPNYTQFKNIGLIKTSSSREDVTDSASGATAFSCGIKTYNAAIGVADDSTAVKSIVEIAALNNIKTGVVATSSITDATPASFYAHALNRGLEEEIAMDMTESDLDFFAGGGLNYFTKRKDKKDVLAILKGNQFTINTTALTDFSSIASNRKMGFLLADEAMPTMEKGRGNFLSAATDLAIQFLSKDNSAFFIMSEGSQIDWGGHANNASYLISEINDFDDAIGTALAFAKKDGNTLVIVTSDHETGGFTLAAKKNKREDGSEYSDYTEIGPTFSTGGHSATLIPVFAYGPGSEEFIGIYENNEIFHKILKVTKWNQ	soluble
MKLLLLIFVPFVTCGLTCMDFMIDCPRIVYYCDETYVQNQCQFSCGICKQDPGVCGDTYFDCDMYDTKCNSPSFQRQCAGTCGLCPGACEDIWDGCSHFLAPCSDDIKSLCPIKCGLCNSTTTPMILTTITPVDPRCVDAGNQCANYSPPCSDDVKIFCPATCGSCSNGTTGVPLVLTTLTPELTTVTVEPITSTLKPTTTTITPTTTTKLPTTTTKKLPPTTPKPPCKDSSPNCAGWAKNGFCTNTFYPPEKRKEYCGKTCRMC	not soluble
MKLNNHNLKEIYSLSLNELKEELFKLGLKSFISKQIYSWIYQKRIFNFDKFSNIAKNNVIILKENFSNNLLKINSYQSNSDGSIKFEFLTDKNLIINCMIIKFKNGFLIKINPFGINFKKEIINLSTNELVLQILLIQQFLDQRKLGNITNVIIKGLQDSLLNMDVVSNFINIINNENGLNIGKRKIAVWTSGINVDLIKWGQLQNQIELIISMNASNSLIYQKIMLKKLNQNWSFLKLIEQIKAYTKITNNRVVLEYLLIDKINDDLNYANELVELLKNILCYVLLIPYNLNNYRTSANLDDFFNILSVNKIRISKRIRKSNDLDISFKQLKIKELEHHHHHH	not soluble
MKLPAPPVLLFLCGMFSLPMALADSGIQLDTPKGGWRTRAMDGEQYIQEVNYPASSVNTPQGQADTARIRGQIKGAPKANKEPGKLIVNGVSMPLKFDEQGSFDRPYAFPNGSNSVEVRSPDGQQRQRVQFLNTGGGVTPPKLRVLLSWDSDNTDLDLHLVTPDGAHIWYGDRVAPNGATLDVDVTTGYGPEIFSMPAPLKGQYLVYVNYYGGGYRSDDDEDGGQENAVQPLTTAQVTVITEEGTPDEKSETFVVPMRAPGELTLVRSFSYPLEHHHHHH	not soluble
MKLPISTISPIHYIKSVVSSRETRSESNKSRRTFANTEWNKIIRETLYLETIYIPLDATSHSPDIIFQLQSPVEPKVLTVGVACKGRWKSEGIGWSDIIDEAKKFLDPLYDQVLSSAMDYHHCMLIIVSTKLSLNVSNELGN	not soluble
MKLSEYGLQLQEKQKLRHMYGVNERQFRKTFEEAGKMPGKHGENFMILLESRLDNLVYRLGLARTRRQARQLVTHGHILVDGSRVNIPSYRVKPGQTIAVREKSRNLQVIKEALEANNYIPDYLSFDPEKMEGTYTRLPERSELPAEINEALIVEFYSR	soluble
MKLSFSLPPKSKSRVSLNSDRKDCIGAGNLKQFVTEFDPSETLTDSKPKYVIPPIEDRRRSYRSIDLPLPSASGLQFEAEIPSGDGSDNNITYGLNLRQKVENVEKPEPVEKMLLKSMRTDLESLPDAPEKEDFESFPVDGFGEALLAGYGWKPGQGIGLKAKEDVKIVEYEKWSGNEGFGFGKSDKAMKMIDNKLVGSGSHEEVKVGINKIENMEKDRVVRKRNRETEGESRTEVKACKQNYRGQTRETREKTSWLRSHIKVRIISKDVKGGRLYLKKAVVTDVVGPTSCDIAMDETQELVQGIDQELLETALPRRGGSVLVLSGRHKGVYGRLVEKDLDKETGVVCDADSQEMLHVKLDQVAEYIGDPADIGY	soluble
MKLSKRQEQIIAVVKEHQPVSGERISDILAVSRATLRSDLSFLTLSGILKASPKVGYTYESDNMEAFFFFDVFQTKVQEIMSPPLMVAQDTSIRDAITNLFMYDVGSLYVMDEAKELLGVLSRKDLLRASLNTNIDGTPVAVCMTRVPHVKTCTPEFTILEAADTLQKYEVDSLPVVEKENPKKVIGKITKTKILTYITQQAKEAAQNR	not soluble
MKLTDRLLKIASLVSDGKKIADIGTDHGYIPVYLLKEGKVPFAVLADVNKGPLDNAHKEVIQNNLLDKVDLRLGSGIEILEIGEVEEVIIAGMGGILISELLEAKKEVAHNVEKLILQPMQAQEELRYYLLNNGYEILEEVLVREDFRIYEIIVAKYTGKNTIIEDEIYYEVGIKLLENKDSLFNDFIEKKIKTYSSIVNKLEGKNGEAIDKKRKESEVAIKKLENLIK	not soluble
MKLVTISGPPSSGKTAVLAGVIRAMMASGLKVGALKYDCLATNDDDVFRAIGVPVQTGLSGNLCPDHYFVSNIEECLDWGIREGFDFLLSESAGLCNRCAPHIKGVLAVCVIDNLMGATTPKKIGPMLKYADIVVITKGDIVSQAEREVFAFQVRRANPRAKIMHVNGITGQGAGELASQFLLAPETTCLDGSRLRFSMPAALCSYCLGETRIGMEFQLGNVKKIKMSEEPARLEHHHHHH	soluble
MKNEDGIINILLMGTDARPNEDSSRSDAMMILTIDNKHNDIKLTSLARDSYVDIPGHGKQKLTHAYAYGQADLLIQTIEENFNIDIQNYACVNFESFMYIIDAIGGVEVTVEKGEIRELNKFIPETYKWNKSDDKGSIQYIRNSGKQTLNGYQALSFARIRHNDTAFARDGRQRQIIQAIIKKTETLPVTKYPGLLDAVLPYVKTNMKPNAILSLGAQVLKMGDLNIKQFEFPIDDEIHSTGGIYGKAGWVLRFDPDTLDILHDFIFNDIEFKQLEHHHHHH	soluble
MKNEELDFDITVFDEGKADLKAAAIYNVPFFPKGAKADEIYTHIKAQIASMLEVKYIDSKVVSISGEKGDFTVNDEQGLGIKADYIIVATGANKSDIKELEDFVIPHELMPKPNKFCFKHHGRQIIKEGIYAAGLASGVTTMVACAMGSANEAACAILSDIKGAVSVYHDTPLEHHHHHH	not soluble
MKNIGVNINSCKDPDGTIRKYVEKVIKEEKKDVQVKFYDELNYFDEVCKTKPDFFIAFGGDGTILNAARNLVSCGIPIFSVNIGHLGFLSSIEFKDFKDAIHKIFKGEYFFQERTMLKCSFIKGNSKKVFYSLNEVVLYKGNMAKILKYNIDVDDKFYMGFKSDGIIISTPTGSTAYNLSAGGPIIYPNLDLISLTPICPQGPYAGTIVLDGKSNITISGIDANENVFITVDGRQPVDVKGVSFIEISKLNYKCKLLKLKDYNYFEVLRKKIILRTEECEGDKYMAGDPLEHHHHHH	soluble
MKNKAFGQIMDDAENPGFFKILRSADLSSEIMRGIPLNFIKSISEEELSAKMLLKVSWGSSWPIKICRNPSFYFMEKKGWDQFLSDNGLGNDEFLTFTHQGNMCFTVDIYQIDGKELLTPRRSATIASSSGRNKREQRNNIYKDVKEEEDIESWSESSYPGHKTAESTGRRQRLSLSNKKAKETEKSKKKKMKVESISYDSQDDSLSLVPEFTLTIKKSYLIFLGIPKMFEELHMPTEATMFKIHDPEGKRSWDVMYKFSNNQTRFCAGWIRLAKELGLEIGDVCTFTLIKPTEMLVRVSK	soluble
MKNSKAILQVPGTMKIISAEIPVPKEDEVLIKVEYVGICGSDVHGFESGPFIPPKDPNQEIGLGHECAGTVVAVGSRVRKFKPGDRVNIEPGVPCGHCRYCLEGKYNICPDVDFMATQPNYRGALTHYLCHPESFTYKLPDNMDTMEGALVEPAAVGMHAAMLADVKPGKKIIILGAGCIGLMTLQACKCLGATEIAVVDVLEKRLAMAEQLGATVVINGAKEDTIARCQQFTEDMGADIVFETAGSAVTVKQAPYLVMRGGKIMIVGTVPGDSAINFLKINREVTIQTVFRYANRYPVTIEAISSGRFDVKSMVTHIYDYRDVQQAFEESVNNKRDIIKGVIKISD	soluble
MKNSLCNSVSSVVKKLLEYGEDGTPVYVNELTALNQELRNLCADLLLQKGESPEEEAEILVTLFKGYDTMLFNFSSENEQVIQELLDRSMTVLEKLPASVLKCQLLLECFEQTGDEELIREAKKNIERVI	soluble
MKNVGFIGWRGMVGSVLMQRMVEERDFDAIRPVFFSTSQLGQAAPSFGGTTGTLQDAFDLEALKALDIIVTCQGGDYTNEIYPKLRESGWQGYWIDAASSLRMKDDAIIILDPVNQDVITDGLNNGIRTFVGGNCTVSLMLMSLGGLFANDLVDWVSVATYQAASGGGARHMRELLTQMGHLYGHVADELATPSSAILDIERKVTTLTRSGELPVDNFGVPLAGSLIPWIDKQLDNGQSREEWKGQAETNKILNTSSVIPVDGLCVRVGALRCHSQAFTIKLKKDVSIPTVEELLAAHNPWAKVVPNDREITMRELTPAAVTGTLTTPVGRLRKLNMGPEFLSAFTVGDQLLWGAAEPLRRMLRQLA	soluble
MKPDSNGVYAYDMKISKKLTMAYKNDNPAKHATPVDYDYKTQTWSKREPNQLMDCFQNYSFNHISDPGDANRMEDVLVVDGLHKRVISINGDMPGAPVVVPYMSEVWIRVSNQILMDSMTIHVHGIDKHGMWYMDGVAFVQQCPIQSTNKFEYRFIADNKGTHWYHGHMQTDRGDGIAGGFIVVDQNDTSVPTLDDRKRIVPSREYFFLLQDWATKVGEEAWMQLEDKTMKWMYGYDDFTKCWEPTRTSDGGNVGGAVPISAILLNDKGWYDHDIIKSQPFNLPLERFQIKPNEDILFRIVNGGVAQELMLYVEGHPMTVVAADGDEVVPMKVDRLIVFPGERYDILIKGLATPTKKSYRIQVETVQKYFFDWKEIPIVYGFGYIEYETDGLPEDKTTPNLMHPECTQNKKCTVLNCPFQEWMAQPNFTCISYDKLENPNPEKIEAEILQATQFNGGFEEHFINMHHDSQMDQFLFQFPWGIPYYHDGDMETISTSCSQTACANNSMSDLDTTCRCFYHLEHKLNNIVQITLYNMGLGGAMGTGYAHPFHLHGHHFYVMKVGWPSYNGSGFIDQMNQDIDCPGRDVSCNGKKWRNKDWLGGALEAMNTKNPTKRDTITLPVGGYITIRFRAVNPGWWFAHCHLELHLMGGTGYAYKVGDQNQIYMPPDNFPHDCGVFKVDKLPELRLPTQKSSNIPYTFIAVCLVLIIDRIFH	not soluble
MKPFCTVMANGEDITRTLMDYVLSIEITDEAEDKSDRITIELDDRARECDNGFLDIPLIGTIISVTLGYEGGKNRDMGAYLIDEISVSSPPQSLSVTGRAASMNTSYRTPKSQSYHQQTLGNIIQEIAERNGYTPKVDPALAKIVVRHIDQTSESDMAFATRLAEDYDAVAKPVDGKLVLAKRGEGKAITGETLPVVVIHEKLCSSWDFKYSARDEAGAANGLATEAGDDQKAAADAREPEEVEEGEDVIHMDESDAPNLPKAETEAKTPENQEQDEEKKGGVLASYHDIRTGEKKEVKVGKAPFHELKYTYHNQSEAVAAIAAYRNKSSRGKSSFSCDIGGDPFVQAEAKLVQEPPFRPYIPAEWRIKSVKHKLDKTGGYTTKIDCELFDETQEDAAGNVANTTPDKDDTLDPNAPPNACDEGEGVIHMDEEDR	not soluble
MKPLLDVLMILDAIEKEGSFAAASAKLYKTPSALSYTVHKLESDLNIQLLDRSGHRAKFTRTGKMLLEKGREVLHTVRELEKQAIKLHEGWENELVIGVDDTFPFSLLAPLIEAFYQHHSVTRLKFINGVLGGSWDALTQGRADIIVGAMHEPPSSSEFGFSRLGDLEQVFAVAPHHPLAQEEEPLNRRIIKRYRAIVVGDTAQAGASTASQLLDEQEAITVFDFKTKLELQISGLGCGYLPRYLAQRFLDSGALIEKKVVAQTLFEPVWIGWNEQTAGLASGWWRDEILANSAIAGVYAKSDDGKSAIQRKIIMTSLSFSCHFPPI	not soluble
